Data: patent US20140030278A1

Columns and labels:
[1] = biological target: Recombinant human TNF-alpha (human) (UniProt P01375); test: ELISA of unbound rhTNF-alpha after pre-incubation; preparation 1; printed as 7.948e-009 g/ml; settings: Fc fusion
[2] = biological target: Recombinant human TNF-alpha (human) (UniProt P01375); test: ELISA of unbound rhTNF-alpha after pre-incubation; preparation 2; printed as 4.220e-009 g/ml; settings: Fc fusion

Recombinant human TNF-alpha (human), sequence (P01375 77-233): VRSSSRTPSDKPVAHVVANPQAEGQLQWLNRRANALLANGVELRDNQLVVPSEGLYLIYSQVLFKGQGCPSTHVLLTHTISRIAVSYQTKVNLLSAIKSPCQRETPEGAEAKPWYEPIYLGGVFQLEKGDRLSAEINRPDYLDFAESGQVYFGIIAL

PEG20-etanercept (5 eq)
IC50 [1]: 7.95 ng/mL | IC50 [2]: 4.22 ng/mL
